Read-outs that look alike come from different tables or passages of the source.
Assays:
Kv1.3 (cloned) [1] = target: Kv1.3 (cloned) (UniProt P16390)
Kv1.2 [2] = assay: patch-clamp, block of channel current
Kv1.6 [3] = assay: patch-clamp, block of channel current
Kv3.2 [4] = assay: patch-clamp, block of channel current
Kv1.2 [5] = assay: patch-clamp, ratio of Kd values; reference margatoxin on Kv1.3
Kv1.6 [6] = assay: as above
Kv3.2 [7] = assay: as above
[8] = target: Kv1.1 (Mus musculus (Mouse)) (UniProt P16388); assay: patch-clamp, ratio of Kd values; reference ShK(L6) on Kv1.3
Kv1.1 = Kv1.1 (UniProt P16388)
Kv1.3 (cloned) [9] = target: Kv1.3 (cloned) (UniProt P16390); remark: listed apart in the source

Chain of Kv1.6 (P17658 whole entry): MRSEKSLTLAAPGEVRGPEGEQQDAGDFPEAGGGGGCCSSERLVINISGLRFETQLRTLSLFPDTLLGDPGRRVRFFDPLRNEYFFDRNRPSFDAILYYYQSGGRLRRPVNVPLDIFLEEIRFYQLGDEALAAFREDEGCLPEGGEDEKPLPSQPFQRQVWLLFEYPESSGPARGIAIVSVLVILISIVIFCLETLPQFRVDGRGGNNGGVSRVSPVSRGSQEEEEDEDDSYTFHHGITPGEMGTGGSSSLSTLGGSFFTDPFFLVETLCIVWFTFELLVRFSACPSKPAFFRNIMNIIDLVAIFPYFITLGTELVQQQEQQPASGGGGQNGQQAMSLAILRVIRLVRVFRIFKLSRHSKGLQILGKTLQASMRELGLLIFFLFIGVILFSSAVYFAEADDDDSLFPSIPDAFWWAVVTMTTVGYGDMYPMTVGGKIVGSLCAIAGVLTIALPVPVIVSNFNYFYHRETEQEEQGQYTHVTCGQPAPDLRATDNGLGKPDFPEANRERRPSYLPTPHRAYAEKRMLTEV
Chain of Kv3.2 (P22462 whole entry): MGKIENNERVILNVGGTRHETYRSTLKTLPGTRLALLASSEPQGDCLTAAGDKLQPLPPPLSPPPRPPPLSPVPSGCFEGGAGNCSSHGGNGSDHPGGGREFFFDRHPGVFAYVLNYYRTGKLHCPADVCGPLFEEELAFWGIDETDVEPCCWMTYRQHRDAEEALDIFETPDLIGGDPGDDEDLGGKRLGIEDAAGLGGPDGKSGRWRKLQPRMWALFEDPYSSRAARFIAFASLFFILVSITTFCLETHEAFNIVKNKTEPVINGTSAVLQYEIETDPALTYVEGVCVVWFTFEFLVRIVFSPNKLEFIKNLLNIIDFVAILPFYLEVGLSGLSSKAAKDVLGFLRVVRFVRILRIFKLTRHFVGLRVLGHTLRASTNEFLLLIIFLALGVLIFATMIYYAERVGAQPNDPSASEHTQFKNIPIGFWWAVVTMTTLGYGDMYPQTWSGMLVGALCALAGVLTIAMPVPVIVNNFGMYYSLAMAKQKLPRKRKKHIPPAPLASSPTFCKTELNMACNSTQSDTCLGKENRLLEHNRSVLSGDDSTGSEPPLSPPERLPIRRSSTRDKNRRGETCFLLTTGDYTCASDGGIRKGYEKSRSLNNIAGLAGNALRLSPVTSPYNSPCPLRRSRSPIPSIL
Chain of Kv1.2 (P63142 whole entry): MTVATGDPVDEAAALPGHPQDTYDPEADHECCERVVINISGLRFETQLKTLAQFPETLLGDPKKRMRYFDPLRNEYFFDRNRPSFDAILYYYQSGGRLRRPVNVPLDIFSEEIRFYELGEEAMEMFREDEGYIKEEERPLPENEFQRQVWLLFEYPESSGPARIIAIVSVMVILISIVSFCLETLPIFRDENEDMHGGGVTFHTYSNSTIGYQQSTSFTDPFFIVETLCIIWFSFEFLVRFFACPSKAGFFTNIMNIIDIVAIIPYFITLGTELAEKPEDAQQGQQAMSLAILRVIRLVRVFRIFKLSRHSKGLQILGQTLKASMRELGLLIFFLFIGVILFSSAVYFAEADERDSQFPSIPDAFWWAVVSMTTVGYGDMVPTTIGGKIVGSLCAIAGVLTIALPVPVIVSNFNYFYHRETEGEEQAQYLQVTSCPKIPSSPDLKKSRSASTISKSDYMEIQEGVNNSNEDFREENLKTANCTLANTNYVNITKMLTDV
Chain of Kv1.1 (Mus musculus (Mouse)) (P16388 whole entry): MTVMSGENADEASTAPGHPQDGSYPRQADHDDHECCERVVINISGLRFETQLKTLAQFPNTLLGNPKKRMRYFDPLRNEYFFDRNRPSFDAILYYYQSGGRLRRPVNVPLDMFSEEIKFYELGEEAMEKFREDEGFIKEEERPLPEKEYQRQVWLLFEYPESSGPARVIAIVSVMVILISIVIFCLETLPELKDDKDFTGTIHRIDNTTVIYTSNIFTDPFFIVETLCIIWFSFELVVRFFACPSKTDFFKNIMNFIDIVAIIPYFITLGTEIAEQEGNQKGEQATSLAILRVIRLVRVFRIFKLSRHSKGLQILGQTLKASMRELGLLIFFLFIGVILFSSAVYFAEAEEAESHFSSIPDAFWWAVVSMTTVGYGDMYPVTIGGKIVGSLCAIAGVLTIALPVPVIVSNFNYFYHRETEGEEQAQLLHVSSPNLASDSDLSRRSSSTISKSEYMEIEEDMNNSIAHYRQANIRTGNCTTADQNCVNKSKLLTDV
Chain of Kv1.1 (P16388 whole entry): as above

Substance ShK(D5) has a Kd (Kv1.3 (cloned) [1]) of 1.1 nM.
Substance “Margatoxin (from UniProt P40755 1-39) (peptide)” has a Kd (Kv1.2 [2]) of 0.52 nM, a Kd (Kv1.6 [3]) greater than 100 nM and a Kd (Kv3.2 [4]) greater than 100 nM. It also gave a fold selectivity for Kv1.3 over this channel (Kv1.2 [5]) of 5 fold, a fold selectivity for Kv1.3 over this channel (Kv1.6 [6]) greater than 1000 fold and a fold selectivity for Kv1.3 over this channel (Kv3.2 [7]) greater than 1000 fold.
For ShK(L6) (peptide), the fold selectivity for Kv1.3 over this channel [8] was 11 fold.
ShK toxin (peptide) gave a Kd (Kv1.2 [2]) of 10 nM, a Kd (Kv1.6 [3]) of 0.2 nM and a Kd (Kv3.2 [4]) of 5 nM.
ShK-F6CA was tested, and the Kd (Kv1.1) was 4 nM.
ShK(L6) gave a Kd (Kv1.3 (cloned) [9]) of 0.01 nM.

Reference: patent publication US8080523
